Reference: patent US20250242064A1, “CXCR4-TARGETING COMPOUNDS, AND METHODS OF MAKING AND USING THE SAME” (PROVINCIAL HEALTH SERVICES AUTHORITY, priority 2022, published 2025)
Where a SMILES comes first, the peptide text is derived from it. Bridges are numbered along the chain shown (N, C = ends). Side-chain parts run from the residue outwards. [ ]: non-standard residue; d: D form. The star is where a group is joined. X2 = O=C(O)CN1CCOCCN(CC(=O)O)CCN(CC(=O)*)CCOCCN(CC(=O)O)CC1; 2Nal = N[C@@H](Cc1ccc2ccccc2c1)C(=O)O; Lys(iPr) = CC(C)NCCCC[C@H](N)C(=O)O; Cya = N[C@@H](CS(=O)(=O)O)C(=O)O

Test: in vivo
Parameters: species or system mice
Details: male, NOD.Cg-Rag1tm1Momll2rgtm1Wjl/SzJ (NRG), mouse, iv, total radioactivity, Mean; for tissue uptake at 1 h / tissue uptake at 3 h / tissue uptake at 24 h / tissue uptake at 72 h / tissue uptake at 120 h: Biodistribution
Description: The Z138 Mantle cell lymphoma cell line was purchased from the American Type Culture Collection (ATCC©CRL-3001). The cell line was cultured in a 5% CO2 atmosphere at 37° C. in a humidified incubator with IMDM medium supplemented with 10% fetal bovine serum, 100 I.U./mL penicillin, and 100 μg/mL streptomycin.
[^68Ga]GaCl3 was eluted from an iThemba Labs generator with a total of 4 mL of 0.1 M HCl. The eluted [^68Ga]GaCl3 solution was added to 2 mL of concentrated HCl. This radioactive mixture was then added to a DGA resin column and washed with 3 mL of 5 M HCl. The column was then dried with air and the [^68Ga]GaCl3 (0.10-0.50 GBq) was eluted with 0.5 mL of water into a vial containing a solution of the unlabeled precursor (25 μg) in 0.7 mL HEPES buffer (2 M, pH 5.3). The reaction mixture was heated in a microwave oven (Danby; DMW7700WDB) for 1 min at power setting 2. The mixture was purified by semi-prep HPLC and quality control was performed via analytical HPLC with the co-injection of the unlabeled standard with a one-twelfth of the radiotracer. Radiochemical yields (decay-corrected) were >50% and radiochemical purities were >95%.
Animal experiments were performed in accordance with guidelines established by the Canadian Council on Animal Care, under a research protocol approved by the Animal Ethics Committee of the University of British Columbia. For all studies, male NOD.Cg-Rag1tm1Momll2rgtm1Wjl/SzJ (NRG) mice were used and cells injected in a 100 μL solution of 1:1 ratio of PBS/Matrigel. For preclinical imaging and biodistribution studies, 5×10^6 cells of Z138, cells were subcutaneously inoculated on the left or right flank and tumors were grown to a size of 200-300 mm^3. […]
Under isoflurane anesthesia (2-2.5% isoflurane in 2 L/min 02), mice were injected intravenously with [^68Ga]Ga-BL34L6 or [^68Ga]Ga-BL34L7. Mice were euthanized by CO2 inhalation after anesthesia with isoflurane. Tissues were harvested, washed in PBS, patted dry, weighed, and then assayed radioactivity on a gamma counter. Counted radioactivities were converted to percentage injected dose per gram of tissue (% ID/g) using a calibration curve.

SMILES: CC(C)NCCCC[C@H](NC(=O)[C@H]1CCC(=O)N[C@@H](CCCCNC(=O)[C@H](CS(=O)(=O)O)NC(=O)CN2CCOCCN(CC(=O)O)CCN(CC(=O)O)CCOCCN(CC(=O)O)CC2)C(=O)N[C@@H](Cc2ccc(O)cc2)C(=O)N[C@@H](CCCCNC(C)C)C(=O)N[C@H](CCCNC(=N)N)C(=O)N[C@@H](Cc2ccc3ccccc3c2)C(=O)N[C@H](C)C(=O)N1)C(N)=O [[^177Lu]Lu-crown-BL34L20, metal not drawn] (K([Cya-X2])Y[Lys(iPr)][dR][2Nal][dA][dE][Lys(iPr)]-NH2; lactam N-7)
- tissue uptake at 1 h (Adrenals): 0.2 %ID/g
- tissue uptake at 3 h (Adrenals): 0.11 %ID/g
- tissue uptake at 24 h (Adrenals): 0.1 %ID/g
- tissue uptake at 72 h (Adrenals): 0.08 %ID/g
- tissue uptake at 120 h (Adrenals): 0.05 %ID/g
- tissue uptake at 1 h (Blood): 0.35 %ID/g
- tissue uptake at 3 h (Blood): 0.08 %ID/g
- tissue uptake at 24 h (Blood): 0.02 %ID/g
- tissue uptake at 72 h (Blood): 0.01 %ID/g
- tissue uptake at 1 h (Bone): 0.15 %ID/g
- tissue uptake at 3 h (Bone): 0.15 %ID/g
- tissue uptake at 24 h (Bone): 0.51 %ID/g
- tissue uptake at 72 h (Bone): 0.66 %ID/g
- tissue uptake at 120 h (Bone): 0.56 %ID/g
- tissue uptake at 1 h (Brain): 0.01 %ID/g
- tissue uptake at 3 h (Brain): 0.01 %ID/g
- tissue uptake at 24 h (Brain): 0.01 %ID/g
- tissue uptake at 72 h (Brain): 0.01 %ID/g
- tissue uptake at 1 h (Heart): 0.14 %ID/g
- tissue uptake at 3 h (Heart): 0.06 %ID/g
- tissue uptake at 24 h (Heart): 0.05 %ID/g
- tissue uptake at 72 h (Heart): 0.05 %ID/g
- tissue uptake at 120 h (Heart): 0.05 %ID/g
- tissue uptake at 1 h (Kidneys): 3.02 %ID/g
- tissue uptake at 3 h (Kidneys): 2.45 %ID/g
- tissue uptake at 24 h (Kidneys): 1.81 %ID/g
- tissue uptake at 72 h (Kidneys): 0.94 %ID/g
- tissue uptake at 120 h (Kidneys): 0.59 %ID/g
- tissue uptake at 1 h (Liver): 0.73 %ID/g
- tissue uptake at 3 h (Liver): 0.77 %ID/g
- tissue uptake at 24 h (Liver): 0.81 %ID/g
- tissue uptake at 72 h (Liver): 0.67 %ID/g
- tissue uptake at 120 h (Liver): 0.59 %ID/g
- tissue uptake at 1 h (Lungs): 0.53 %ID/g
- tissue uptake at 3 h (Lungs): 0.28 %ID/g
- tissue uptake at 24 h (Lungs): 0.2 %ID/g
- tissue uptake at 72 h (Lungs): 0.17 %ID/g
- tissue uptake at 120 h (Lungs): 0.15 %ID/g
- tissue uptake at 1 h (Muscle): 0.09 %ID/g
- tissue uptake at 3 h (Muscle): 0.03 %ID/g
- tissue uptake at 24 h (Muscle): 0.03 %ID/g
- tissue uptake at 72 h (Muscle): 0.02 %ID/g
- tissue uptake at 120 h (Muscle): 0.01 %ID/g
- tissue uptake at 1 h (Pancreas): 0.12 %ID/g
- tissue uptake at 3 h (Pancreas): 0.04 %ID/g
- tissue uptake at 24 h (Pancreas): 0.04 %ID/g
- tissue uptake at 72 h (Pancreas): 0.03 %ID/g
- tissue uptake at 120 h (Pancreas): 0.03 %ID/g
- tissue uptake at 1 h (Small Intestine): 0.23 %ID/g
- tissue uptake at 3 h (Small Intestine): 0.1 %ID/g
- tissue uptake at 24 h (Small Intestine): 0.17 %ID/g
- tissue uptake at 72 h (Small Intestine): 0.08 %ID/g
- tissue uptake at 120 h (Small Intestine): 0.06 %ID/g
- tissue uptake at 1 h (Spleen): 0.29 %ID/g
- tissue uptake at 3 h (Spleen): 0.23 %ID/g
- tissue uptake at 24 h (Spleen): 0.26 %ID/g
- tissue uptake at 72 h (Spleen): 0.24 %ID/g
- tissue uptake at 120 h (Spleen): 0.22 %ID/g
- tissue uptake at 1 h (Stomach): 0.08 %ID/g
- tissue uptake at 3 h (Stomach): 0.09 %ID/g
- tissue uptake at 24 h (Stomach): 0.52 %ID/g
- tissue uptake at 72 h (Stomach): 0.12 %ID/g
- tissue uptake at 120 h (Stomach): 0.14 %ID/g
- tissue uptake at 1 h (Testes): 0.11 %ID/g
- tissue uptake at 3 h (Testes): 0.04 %ID/g
- tissue uptake at 24 h (Testes): 0.04 %ID/g
- tissue uptake at 72 h (Testes): 0.03 %ID/g
- tissue uptake at 120 h (Testes): 0.03 %ID/g
- tissue uptake at 1 h (Z138 Tumor): 13.7 %ID/g
- tissue uptake at 3 h (Z138 Tumor): 11.7 %ID/g
- tissue uptake at 24 h (Z138 Tumor): 7.28 %ID/g
- tissue uptake at 72 h (Z138 Tumor): 3.47 %ID/g
- tissue uptake at 120 h (Z138 Tumor): 2.38 %ID/g
- tissue to tissue ratio at 1 h (Tumor-to-Blood ratio): 39.4
- tissue to tissue ratio at 3 h (Tumor-to-Blood ratio): 147
- tissue to tissue ratio at 24 h (Tumor-to-Blood ratio): 301
- tissue to tissue ratio at 72 h (Tumor-to-Blood ratio): 396
- tissue to tissue ratio at 120 h (Tumor-to-Blood ratio): 607
- tissue to tissue ratio at 1 h (Tumor-to-Bone ratio): 94
- tissue to tissue ratio at 3 h (Tumor-to-Bone ratio): 83.2
- tissue to tissue ratio at 24 h (Tumor-to-Bone ratio): 15.3
- tissue to tissue ratio at 72 h (Tumor-to-Bone ratio): 5.53
- tissue to tissue ratio at 120 h (Tumor-to-Bone ratio): 5.33
- tissue to tissue ratio at 1 h (Tumor-to-Kidney ratio): 4.54
- tissue to tissue ratio at 3 h (Tumor-to-Kidney ratio): 4.78
- tissue to tissue ratio at 24 h (Tumor-to-Kidney ratio): 4.01
- tissue to tissue ratio at 72 h (Tumor-to-Kidney ratio): 3.69
- tissue to tissue ratio at 120 h (Tumor-to-Kidney ratio): 4.1
- tissue to tissue ratio at 1 h (Tumor-to-Muscle ratio): 161
- tissue to tissue ratio at 3 h (Tumor-to-Muscle ratio): 430
- tissue to tissue ratio at 24 h (Tumor-to-Muscle ratio): 281
- tissue to tissue ratio at 72 h (Tumor-to-Muscle ratio): 175
- tissue to tissue ratio at 120 h (Tumor-to-Muscle ratio): 178
- tissue to tissue ratio at 1 h (Tumor-to-Pancreas ratio): 140
- tissue to tissue ratio at 3 h (Tumor-to-Pancreas ratio): 276
- tissue to tissue ratio at 24 h (Tumor-to-Pancreas ratio): 198
- tissue to tissue ratio at 72 h (Tumor-to-Pancreas ratio): 103
- tissue to tissue ratio at 120 h (Tumor-to-Pancreas ratio): 78
